Experimental data taken from patent US20230416411A1 (Hoffmann-La Roche, published 2023).

B1: EGFRvIII antibody P063.056, human IgG1 PGLALA (antibody, V domains shown)
VH: EVQLVQSGAEVKKPGESLKISCKGSGYSFDSYWIAWVRQMPGKGLEWMGVIHPYDSDTRYSPSFQGQVTISADKSISTAYLQWSSLKASDTAMYYCARVSRSSYAFDYWGQGTLVTVSS
VL: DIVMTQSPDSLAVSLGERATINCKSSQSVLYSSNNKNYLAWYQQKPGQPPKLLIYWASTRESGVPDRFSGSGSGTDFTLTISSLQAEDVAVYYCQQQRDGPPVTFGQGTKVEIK
notes: Anti-EGFRvIII PGLALA IgG
B2: EGFRvIII TCB P056.021 (CD3orig) (bispecific antibody, V domains shown)
VH 1: EVQLVQSGAEVKKPGESLKISCKGSGYSFDSYWIAWVRQMPGKGLEWMGVIHPYDSDTRYSPSFQGQVTISADKSISTAYLQWSSLKASDTAMYYCARVSRSSYAFDYWGQGTLVTVSS
VL 1: not shown
VH 2: not shown
VL 2: QAVVTQEPSLTVSPGGTVTLTCGSSTGAVTTSNYANWVQEKPGQAFRGLIGGTNKRAPGTPARFSGSLLGGKAALTLSGAQPEDEAEYYCALWYSNLWVFGGGTKLTVL
notes: also called parental EGFRvIII TCB P056.021; P056.021 EGFRvIII TCB with CD3orig
B3: TYRP1 TCB CD3opt (bispecific antibody, human IgG1, kappa, L234A L235A)
heavy 1: not shown
heavy 2: QVQLVQSGAEVKKPGASVKVSCKASGFNIKDYFLHWVRQAPGQGLEWMGWINPDNGNTVYAQKFQGRVTMTADTSTSTVYMELSSLRSEDTAVYYCTRRDYTYEKAALDYWGQGTLVTVSSASTKGPSVFPLAPSSKSTSGGTAALGCLVEDYFPEPVTVSWNSGALTSGVHTFPAVLQSSGLYSLSSVVTVPSSSLGTQTYICNVNHKPSNTKVDEKVEPKSCDKTHTCPPCPAPEAAGGPSVFLFPPKPKDTLMISRTPEVTCVVVDVSHEDPEVKFNWYVDGVEVHNAKTKPREEQYNSTYRVVSVLTVLHQDWLNGKEYKCKVSNKALGAPIEKTISKAKGQPREPQVCTLPPSRDELTKNQVSLSCAVKGFYPSDIAVEWESNGQPENNYKTTPPVLDSDGSFFLVSKLTVDKSRWQQGNVFSCSVMHEALHNHYTQKSLSLSP
light 1: DIQMTQSPSSLSASVGDRVTITCRASGNIYNYLAWYQQKPGKVPKLLIYDAKTLADGVPSRFSGSGSGTDFTLTISSLQPEDVATYYCQHFWSLPFTFGQGTKLEIKRTVAAPSVFIFPPSDRKLKSGTASVVCLLNNFYPREAKVQWKVDNALQSGNSQESVTEQDSKDSTYSLSSTLTLSKADYEKHKVYACEVTHQGLSSPVTKSFNRGEC
light 2: EVQLLESGGGLVQPGGSLRLSCAASGFQFSSYAMNWVRQAPGKGLEWVSRIRSKYNNYATYYADSVKGRFTISRDDSKNTLYLQMNSLRAEDTAVYYCVRHTTFPSSYVSYYGYWGQGTLVTVSSASVAAPSVFIFPPSDEQLKSGTASVVCLLNNFYPREAKVQWKVDNALQSGNSQESVTEQDSKDSTYSLSSTLTLSKADYEKHKVYACEVTHQGLSSPVTKSFNRGEC
B4: TYRP1 TCB CD3orig (bispecific antibody, human IgG1, kappa, L234A L235A)
heavy 1: not shown
heavy 2: QVQLVQSGAEVKKPGASVKVSCKASGFNIKDYFLHWVRQAPGQGLEWMGWINPDNGNTVYAQKFQGRVTMTADTSTSTVYMELSSLRSEDTAVYYCTRRDYTYEKAALDYWGQGTLVTVSSASTKGPSVFPLAPSSKSTSGGTAALGCLVEDYFPEPVTVSWNSGALTSGVHTFPAVLQSSGLYSLSSVVTVPSSSLGTQTYICNVNHKPSNTKVDEKVEPKSCDKTHTCPPCPAPEAAGGPSVFLFPPKPKDTLMISRTPEVTCVVVDVSHEDPEVKFNWYVDGVEVHNAKTKPREEQYNSTYRVVSVLTVLHQDWLNGKEYKCKVSNKALGAPIEKTISKAKGQPREPQVCTLPPSRDELTKNQVSLSCAVKGFYPSDIAVEWESNGQPENNYKTTPPVLDSDGSFFLVSKLTVDKSRWQQGNVFSCSVMHEALHNHYTQKSLSLSP
light 1: DIQMTQSPSSLSASVGDRVTITCRASGNIYNYLAWYQQKPGKVPKLLIYDAKTLADGVPSRFSGSGSGTDFTLTISSLQPEDVATYYCQHFWSLPFTFGQGTKLEIKRTVAAPSVFIFPPSDRKLKSGTASVVCLLNNFYPREAKVQWKVDNALQSGNSQESVTEQDSKDSTYSLSSTLTLSKADYEKHKVYACEVTHQGLSSPVTKSFNRGEC
light 2: EVQLLESGGGLVQPGGSLRLSCAASGFTFSTYAMNWVRQAPGKGLEWVSRIRSKYNNYATYYADSVKGRFTISRDDSKNTLYLQMNSLRAEDTAVYYCVRHGNFGNSYVSWFAYWGQGTLVTVSSASVAAPSVFIFPPSDEQLKSGTASVVCLLNNFYPREAKVQWKVDNALQSGNSQESVTEQDSKDSTYSLSSTLTLSKADYEKHKVYACEVTHQGLSSPVTKSFNRGEC
B5: EGFRvIII TCB CD3orig (EGFRvIII binder P063.056) (bispecific antibody, human IgG1, kappa, L234A L235A)
heavy 1: not shown
heavy 2: EVQLVQSGAEVKKPGESLKISCKGSGYSFDSYWIAWVRQMPGKGLEWMGVIHPYDSDTRYSPSFQGQVTISADKSISTAYLQWSSLKASDTAMYYCARVSRSSYAFDYWGQGTLVTVSSASTKGPSVFPLAPSSKSTSGGTAALGCLVEDYFPEPVTVSWNSGALTSGVHTFPAVLQSSGLYSLSSVVTVPSSSLGTQTYICNVNHKPSNTKVDEKVEPKSCDKTHTCPPCPAPEAAGGPSVFLFPPKPKDTLMISRTPEVTCVVVDVSHEDPEVKFNWYVDGVEVHNAKTKPREEQYNSTYRVVSVLTVLHQDWLNGKEYKCKVSNKALGAPIEKTISKAKGQPREPQVCTLPPSRDELTKNQVSLSCAVKGFYPSDIAVEWESNGQPENNYKTTPPVLDSDGSFFLVSKLTVDKSRWQQGNVFSCSVMHEALHNHYTQKSLSLSP
light 1: not shown
light 2: EVQLLESGGGLVQPGGSLRLSCAASGFTFSTYAMNWVRQAPGKGLEWVSRIRSKYNNYATYYADSVKGRFTISRDDSKNTLYLQMNSLRAEDTAVYYCVRHGNFGNSYVSWFAYWGQGTLVTVSSASVAAPSVFIFPPSDEQLKSGTASVVCLLNNFYPREAKVQWKVDNALQSGNSQESVTEQDSKDSTYSLSSTLTLSKADYEKHKVYACEVTHQGLSSPVTKSFNRGEC
notes: 2+1 IgG CrossFab, inverted, with charge modifications; also called EGFRvIII TCB P063.056 with CD3orig

Columns and labels:
[1] = target: T1, EGFRvIII expressed on the cell surface (CHO-EGFRvIII, DK-MG, U87MG-EGFRvIII cells) (human, UniProt P00533 298-1210); test: flow cytometry on U87MG-EGFRvIII cells, IgG PGLALA
T1 construct: also called EGFRvIII on cells
Method: (§1) Cells used for binding experiments were harvested, washed with PBS and resuspended in FACS buffer. The antibody staining was performed in a 96-well round bottom plate. Cells were harvested, counted and 100 000 to 200 000 cells were seeded per well. The plate was centrifuged for 4 min at 400×g and the supernatant was removed. The test antibodies were diluted in FACS buffer and 20 μl of the antibody solution were added to the cells for 30 min at 4° C. To remove unbound antibody the cells were washed twice with FACS buffer before addition of the diluted secondary antibody PE-conjugated AffiniPure F(ab′)2 Fragment goat anti-human IgG Fcg Fragment Specific (Jackson ImmunoResearch, #109-116-170 or #109-116-098). After 30 min incubation on 4° C. unbound secondary antibody was washed away. Before measurement the cells were resuspended in 200 μl FACS buffer and analyzed by flow cytometry using BD Canto II or BD FACS Fortessa.

[2] = target: T1, EGFRvIII expressed on the cell surface …; test: flow cytometry on U87MG-EGFRvIII cells, labelled anti-human Fc secondary antibody
Method: as §1

[3] = target: TYRP1 on the primary melanoma cell line M150543 (human, UniProt P17643 25-537); test: cell-based or functional assay

| Binder | EC50 (read off the curve) [1] [nM] | EC50 (read off the curve) [2] [nM] | EC50 of tumor cell killing at 48 h, PBMC donor 1 [3] [nM] | EC50 of tumor cell killing at 48 h, PBMC donor 2 [3] [nM] | EC50 of tumor cell killing at 48 h, PBMC donor 3 [3] [nM] |
| --- | --- | --- | --- | --- | --- |
| B1 | ~5 | ~4 | – | – | – |
| B2 | – | ~5 | – | – | – |
| B3 | – | – | 0.31 | 0.03 | 0.08 |
| B4 | – | – | 0.44 | 0.05 | 0.14 |
| B5 | – | ~10 | – | – | – |
